Key:
Experiment in all cases: Kinase Profiling Assay
Format in all cases: biochemical
Conditions in all cases: for % activity: 100 μM
cKit(h) = cKit(h) (Homo sapiens, UniProt P10721)
MSSK1(h) = MSSK1(h) (Homo sapiens, UniProt Q9UPE1)
Met(D1246H)(h) = Met(D1246H)(h) (Homo sapiens, UniProt P08581, D1228H)
CSK(h) = CSK(h) (Homo sapiens, UniProt P41240)
CHK2(I157T)(h) = CHK2(I157T)(h) (Homo sapiens, UniProt O96017, I157T)
ALK(h) = ALK(h) (Homo sapiens, UniProt Q9UM73)
TrkB(h) = TrkB(h) (Homo sapiens, UniProt Q16620)
IRR(h) = IRR(h) (Homo sapiens, UniProt P14616)
IRR(h), sequence (P14616 27-1297): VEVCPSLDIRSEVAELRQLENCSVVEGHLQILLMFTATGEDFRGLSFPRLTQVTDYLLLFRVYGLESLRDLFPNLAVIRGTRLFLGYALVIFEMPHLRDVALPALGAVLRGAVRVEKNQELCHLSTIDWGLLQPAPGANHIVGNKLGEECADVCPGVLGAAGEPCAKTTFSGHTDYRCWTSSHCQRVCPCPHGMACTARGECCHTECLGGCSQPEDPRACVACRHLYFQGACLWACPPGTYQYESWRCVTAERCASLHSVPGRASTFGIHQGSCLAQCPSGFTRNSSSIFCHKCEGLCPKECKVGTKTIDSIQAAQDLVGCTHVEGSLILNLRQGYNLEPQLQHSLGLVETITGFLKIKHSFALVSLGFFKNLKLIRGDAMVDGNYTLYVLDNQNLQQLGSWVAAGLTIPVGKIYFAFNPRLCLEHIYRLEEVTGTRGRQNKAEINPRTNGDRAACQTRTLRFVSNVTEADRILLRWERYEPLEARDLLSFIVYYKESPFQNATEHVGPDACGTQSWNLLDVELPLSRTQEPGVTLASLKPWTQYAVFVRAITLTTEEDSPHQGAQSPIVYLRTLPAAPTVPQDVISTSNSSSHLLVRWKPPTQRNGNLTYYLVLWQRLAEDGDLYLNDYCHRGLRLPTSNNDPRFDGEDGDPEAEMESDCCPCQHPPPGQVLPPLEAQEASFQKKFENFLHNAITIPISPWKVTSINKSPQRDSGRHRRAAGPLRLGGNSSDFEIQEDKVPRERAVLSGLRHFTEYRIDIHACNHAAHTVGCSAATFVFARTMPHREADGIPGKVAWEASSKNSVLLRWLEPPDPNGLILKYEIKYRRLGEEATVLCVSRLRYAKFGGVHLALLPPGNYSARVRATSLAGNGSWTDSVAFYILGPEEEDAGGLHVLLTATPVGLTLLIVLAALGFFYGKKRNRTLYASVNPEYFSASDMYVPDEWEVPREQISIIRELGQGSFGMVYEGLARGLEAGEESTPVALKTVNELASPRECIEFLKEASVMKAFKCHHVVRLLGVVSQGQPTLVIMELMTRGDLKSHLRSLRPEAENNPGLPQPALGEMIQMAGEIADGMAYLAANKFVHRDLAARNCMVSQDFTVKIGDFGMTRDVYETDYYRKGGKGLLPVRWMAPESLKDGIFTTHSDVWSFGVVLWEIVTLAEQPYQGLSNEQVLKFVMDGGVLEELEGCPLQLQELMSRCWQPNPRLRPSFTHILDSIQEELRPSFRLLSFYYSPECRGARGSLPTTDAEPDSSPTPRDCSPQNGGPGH

Ret(h) = Ret(h) (Homo sapiens, UniProt P07949)
Met(Y1248C)(h) = Met(Y1248C)(h) (Homo sapiens, UniProt P08581, Y1230C)
EphB1(h) = molecular target: T1, EphB1(h) (Homo sapiens, UniProt P54762)
T1 sequence (P54762 18-984): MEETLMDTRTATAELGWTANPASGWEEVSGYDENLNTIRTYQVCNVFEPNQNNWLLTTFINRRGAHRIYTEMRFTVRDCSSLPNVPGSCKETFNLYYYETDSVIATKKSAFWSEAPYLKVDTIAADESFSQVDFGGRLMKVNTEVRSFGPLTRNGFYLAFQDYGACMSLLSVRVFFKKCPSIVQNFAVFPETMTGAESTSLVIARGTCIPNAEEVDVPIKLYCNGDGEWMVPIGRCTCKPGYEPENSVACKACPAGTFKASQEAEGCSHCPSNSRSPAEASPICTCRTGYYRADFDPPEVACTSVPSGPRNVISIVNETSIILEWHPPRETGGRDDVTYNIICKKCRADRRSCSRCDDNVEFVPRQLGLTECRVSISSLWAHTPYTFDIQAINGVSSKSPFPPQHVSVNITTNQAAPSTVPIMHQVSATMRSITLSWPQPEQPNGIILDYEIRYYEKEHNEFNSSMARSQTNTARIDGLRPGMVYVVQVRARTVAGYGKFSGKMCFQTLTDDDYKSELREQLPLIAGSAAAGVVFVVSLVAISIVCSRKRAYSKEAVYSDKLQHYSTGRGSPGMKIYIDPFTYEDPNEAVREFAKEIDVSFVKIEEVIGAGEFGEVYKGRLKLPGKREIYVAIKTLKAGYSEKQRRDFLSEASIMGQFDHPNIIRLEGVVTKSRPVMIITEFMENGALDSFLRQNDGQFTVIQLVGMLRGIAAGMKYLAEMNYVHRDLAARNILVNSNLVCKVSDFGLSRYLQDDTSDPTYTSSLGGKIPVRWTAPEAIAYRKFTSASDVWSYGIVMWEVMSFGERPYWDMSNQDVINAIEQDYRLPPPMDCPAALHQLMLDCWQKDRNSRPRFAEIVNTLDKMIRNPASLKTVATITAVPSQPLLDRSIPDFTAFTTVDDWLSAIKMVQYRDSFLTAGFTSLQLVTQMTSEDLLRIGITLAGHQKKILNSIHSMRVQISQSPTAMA

ZAP-70(h) = molecular target: T2, ZAP-70(h) (Homo sapiens, UniProt P43403)
T2 sequence (P43403 1-619): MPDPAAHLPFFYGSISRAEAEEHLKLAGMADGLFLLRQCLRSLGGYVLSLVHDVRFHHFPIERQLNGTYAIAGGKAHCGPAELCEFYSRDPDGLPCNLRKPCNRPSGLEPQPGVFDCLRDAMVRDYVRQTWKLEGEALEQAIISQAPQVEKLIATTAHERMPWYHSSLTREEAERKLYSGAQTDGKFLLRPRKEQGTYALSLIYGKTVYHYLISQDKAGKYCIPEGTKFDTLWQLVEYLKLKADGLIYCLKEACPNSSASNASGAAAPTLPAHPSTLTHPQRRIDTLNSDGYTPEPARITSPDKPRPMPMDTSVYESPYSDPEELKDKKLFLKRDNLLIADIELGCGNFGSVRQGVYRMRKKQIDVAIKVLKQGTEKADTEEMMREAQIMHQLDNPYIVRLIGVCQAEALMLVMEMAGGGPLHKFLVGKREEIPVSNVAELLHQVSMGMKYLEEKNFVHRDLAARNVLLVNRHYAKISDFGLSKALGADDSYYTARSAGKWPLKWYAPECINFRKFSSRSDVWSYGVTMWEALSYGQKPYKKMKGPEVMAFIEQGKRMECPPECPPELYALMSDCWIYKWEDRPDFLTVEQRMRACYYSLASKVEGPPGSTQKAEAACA

EphA7(h) = EphA7(h) (Homo sapiens, UniProt Q15375)
EphA7(h), sequence (Q15375 28-998): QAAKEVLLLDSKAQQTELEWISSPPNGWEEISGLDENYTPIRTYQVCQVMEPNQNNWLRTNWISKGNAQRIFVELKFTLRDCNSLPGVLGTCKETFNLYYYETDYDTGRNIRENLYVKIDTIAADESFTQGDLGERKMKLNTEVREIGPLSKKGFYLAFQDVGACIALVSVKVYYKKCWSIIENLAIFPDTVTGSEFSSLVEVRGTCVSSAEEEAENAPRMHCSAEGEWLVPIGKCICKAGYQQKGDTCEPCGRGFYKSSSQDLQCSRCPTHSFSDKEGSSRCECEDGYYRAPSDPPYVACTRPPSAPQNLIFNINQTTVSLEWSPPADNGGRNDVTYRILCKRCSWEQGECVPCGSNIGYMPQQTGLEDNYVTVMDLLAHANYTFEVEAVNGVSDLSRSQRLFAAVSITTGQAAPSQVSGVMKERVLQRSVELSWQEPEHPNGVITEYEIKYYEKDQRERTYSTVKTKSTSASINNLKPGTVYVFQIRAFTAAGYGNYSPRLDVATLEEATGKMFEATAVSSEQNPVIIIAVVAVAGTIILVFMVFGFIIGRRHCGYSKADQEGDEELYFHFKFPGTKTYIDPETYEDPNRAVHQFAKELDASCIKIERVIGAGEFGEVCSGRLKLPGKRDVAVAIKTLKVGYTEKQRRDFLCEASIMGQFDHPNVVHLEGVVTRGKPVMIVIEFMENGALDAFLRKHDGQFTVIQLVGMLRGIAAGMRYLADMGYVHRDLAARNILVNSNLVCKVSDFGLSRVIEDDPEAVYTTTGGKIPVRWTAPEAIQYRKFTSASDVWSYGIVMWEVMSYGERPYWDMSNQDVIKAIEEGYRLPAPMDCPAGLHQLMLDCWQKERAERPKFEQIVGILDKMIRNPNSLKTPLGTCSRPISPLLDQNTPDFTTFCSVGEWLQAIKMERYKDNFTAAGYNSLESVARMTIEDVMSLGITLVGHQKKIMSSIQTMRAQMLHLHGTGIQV

CHK2(I157T)(h), sequence (O96017 whole entry I157T): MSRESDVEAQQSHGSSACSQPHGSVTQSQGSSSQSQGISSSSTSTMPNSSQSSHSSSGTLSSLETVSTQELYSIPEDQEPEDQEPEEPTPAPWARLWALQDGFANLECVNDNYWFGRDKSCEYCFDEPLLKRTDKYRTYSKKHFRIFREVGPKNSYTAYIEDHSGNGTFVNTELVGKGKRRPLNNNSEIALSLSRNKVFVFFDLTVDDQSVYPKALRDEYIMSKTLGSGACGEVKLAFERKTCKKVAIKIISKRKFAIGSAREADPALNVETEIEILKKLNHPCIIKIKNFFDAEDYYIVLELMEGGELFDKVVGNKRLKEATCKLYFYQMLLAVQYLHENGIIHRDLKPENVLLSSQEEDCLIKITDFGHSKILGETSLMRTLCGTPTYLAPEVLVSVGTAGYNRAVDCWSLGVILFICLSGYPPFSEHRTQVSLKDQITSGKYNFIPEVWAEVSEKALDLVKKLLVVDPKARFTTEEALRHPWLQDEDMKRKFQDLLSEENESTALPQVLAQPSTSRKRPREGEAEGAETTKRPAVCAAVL
MSSK1(h), sequence (Q9UPE1 whole entry): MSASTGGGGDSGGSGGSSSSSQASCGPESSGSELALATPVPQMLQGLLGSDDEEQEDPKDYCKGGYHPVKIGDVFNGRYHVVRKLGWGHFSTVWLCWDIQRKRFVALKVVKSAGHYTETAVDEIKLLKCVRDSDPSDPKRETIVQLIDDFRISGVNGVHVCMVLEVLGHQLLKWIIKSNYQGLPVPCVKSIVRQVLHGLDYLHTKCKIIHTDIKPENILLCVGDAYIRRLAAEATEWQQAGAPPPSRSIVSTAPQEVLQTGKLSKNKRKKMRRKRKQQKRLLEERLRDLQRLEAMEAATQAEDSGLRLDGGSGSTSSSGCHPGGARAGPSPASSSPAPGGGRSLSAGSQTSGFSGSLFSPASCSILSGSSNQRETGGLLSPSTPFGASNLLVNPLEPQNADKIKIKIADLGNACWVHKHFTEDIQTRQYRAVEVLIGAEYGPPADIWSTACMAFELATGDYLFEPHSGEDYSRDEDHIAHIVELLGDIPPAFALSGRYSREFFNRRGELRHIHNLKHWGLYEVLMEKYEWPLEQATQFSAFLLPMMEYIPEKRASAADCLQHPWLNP
CSK(h), sequence (P41240 whole entry): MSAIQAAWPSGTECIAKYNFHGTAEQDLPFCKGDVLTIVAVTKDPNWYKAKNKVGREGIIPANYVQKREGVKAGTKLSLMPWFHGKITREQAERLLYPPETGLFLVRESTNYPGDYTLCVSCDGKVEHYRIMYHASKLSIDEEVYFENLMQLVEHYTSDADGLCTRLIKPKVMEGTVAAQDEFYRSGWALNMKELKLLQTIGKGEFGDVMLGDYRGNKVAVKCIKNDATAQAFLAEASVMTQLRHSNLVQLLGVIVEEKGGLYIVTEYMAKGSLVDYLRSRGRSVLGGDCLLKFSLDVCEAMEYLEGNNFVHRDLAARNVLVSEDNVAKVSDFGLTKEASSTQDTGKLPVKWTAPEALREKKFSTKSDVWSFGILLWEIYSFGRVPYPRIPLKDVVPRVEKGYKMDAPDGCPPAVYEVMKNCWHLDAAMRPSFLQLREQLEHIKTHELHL

Row | Substance | % activity (cKit(h)) [%] | % activity (MSSK1(h)) [%] | % activity (Met(D1246H)(h)) [%] | % activity (CSK(h)) [%] | % activity (CHK2(I157T)(h)) [%] | % activity (ALK(h)) [%] | % activity (TrkB(h)) [%] | % activity (IRR(h)) [%] | % activity (Ret(h)) [%] | % activity (Met(Y1248C)(h)) [%] | % activity (EphB1(h)) [%] | % activity (ZAP-70(h)) [%] | % activity (EphA7(h)) [%] | also measured
1 | HRRIKAWLKKIKALARQLGVAA (Mammalian) [MMI-0500] | 45 | 22 | 150 | 2 | 3 | 12 | 12 | 10 | 174 | 73 | 37 | 1 | 189 | 
2 | YARAAARQARAKALNRQLGVA (Mammalian) [MMI-0200] | 110 | 100 | 139 | 33 | 85 | 95 | 7 | 69 | 96 | 141 | 95 | 58 | 220 | 
3 | H-YARAAARQARAKALARQLGVAA-OH [MMI-0100] |  |  |  |  |  |  |  |  |  |  |  |  |  | activity at 100 µM (cKit(h)): 95%; activity at 100 µM (MSSK1(h)): 82%; activity at 100 µM (Met(D1246H)(h)): 99%; activity at 100 µM (CSK(h)): 70%; activity at 100 µM (CHK2(I157T)(h)): 97%; activity at 100 µM (ALK(h)): 118%; activity at 100 µM (TrkB(h)): 4%; activity at 100 µM (IRR(h)): 85%; activity at 100 µM (Ret(h)): 108%; activity at 100 µM (Met(Y1248C)(h)): 77%; activity at 100 µM (EphB1(h)): 99%; activity at 100 µM (ZAP-70(h)): 79%; activity at 100 µM (EphA7(h)): 193%

Reference: patent US10087225B2, “Formulation of MK2 inhibitor peptides” (MOERAE MATRIX, INC., priority 2015, dated 2018)
